Experimental data published in a protein production outcome set (Wang et al. 2014).

Assay: label from the status in PepcDB records

Protein production, not failed:
MESVYLFSSGTLKRKANTICLETESGRKYIPVENVMDIKVFGEVDLNKRFLEFLSQKRIPIHFFNREGYYVGTFYPREYLNSGFLILKQAEHYINQEKRMLIAREIVSRSFQNMVDFLKKRKVRADSLTRYKKKAEEASNVSELMGIEGNAREEYYSMIDSLVSDERFRIEKRTRRPPKNFANTLISFGNSLLYTTVLSLIYQTHLDPRIGYLHETNFRRFSLNLDIAELFKPAVVDRLFLNLVNTRQINEKHFDEISEGLMLNDEGKSLFVKNYEQALRETVFHKKLNRYVSMRSLIKMELHKLEKHLIGEQVFGSEE, METLLIQQTEKSNKFWKIVVKEKDYVVFYGKIGTAGSVKAKEFETEEECMNEANKLVASKRKKGYIDPLPGEDYIKEKTITEEEFWELLHRAKTKGEDQEEQIEWLTSHLAKRTVHEIVAFDTHMHSLLKDSYTSRLWAAAYIIMGGCSDDTFDYFRGWLLYQGKETYEACIEDPERLIPVLENLSEYDVPEIEELSLYFGFTVYAEKTGDEDDTYFTLYHVLSNEEFDDVDFEFDWNEDDEEGLKKVFPRLWEMYGEEPIEWLEHHHHHH, METPNPLTLSELPHDLLRNIFNRLSFADFHRATWNSISKQTAPPKTKSPWLILFPDEGVHGCVLYNPDEDRIYKSVRDFSGTIFLANSGNWFLVMDSKSNLYIIDVFSENRIDLPPLESLLSDNFTFEQKGDKELKWQASNDQILVFRLPRAEELRGILWVDEKMKEFVAVWFLEDSCNFLAFYKKADDHYSHIQLEYVITDVFQSVSDIVLHGCFLYIGVGDYIQIIDLSKDQGFKDVTRNYLFNVHNGPWGFRSIFNLVVTTSGEVLMVLNNLYEKNIESEKSFRIFKKDPNPDPNKHDNLLVEVDSLGNEEVMLLDLGITMHGIEPNSIYFTRHDRVVHRLYIS, MEVDKKDEREAESSEQVVNPWEVSAKDGGKIDYDKLIDKFGCQRLDESLIDRVQRLTSRQPHVFLRRSVFFAHRDFNEILDAYERGDKFYLYTGRGPSSEALHLGHLIPFMFTKYLQEAFKVPLVIQLTDDEKSIWKNLSVEESQRLARENAKDIIACGFDVTKTFIFSDFDYVGGAFYKNMVKVGKCVTLNKAMGIFGFSGEDPIAKLSFPPVQAVPSFPSSFPHLFPGKDNLRCLIPCAIDQDPYFRMTRDVAPRLGYSKPALIESTFFPALQGENGKMSASDPNSAIYVTDSAKDIKNKINRYAFSGGQDSIEKHRELGANLEVDIPVKYLSFFLEDDSELEHIKKEYGEGRMLTGEVKKRLTEVLTEIVERHRRARAAVTDEMVDAFMAVRPLPSMFE

Protein production, failed:
MESVKTGKTNKVGKNTEMANTKANKETHFKQVSAITNIIRSVGGFFTKIAKRVRGLVKKHPKKSSAALVVLTHIACKKAKELDDKVQDKSKQAEKENQINWWKYSGLTIAASLLLAACSAGDTDKQIELEQEKKEAENARDRANKSGIELEQERQKTNKSGIELANSQIKAEQERQKTEQEKQKANKSAIELEQQKQKTINTQRDLIKEQKDFIKETEQNCQENHNQFFIKKLGIKGGIAIEVEAECKTPKPAKTNQTPIQPKHLPNSKQPHSQRGSKAQEFIAYLQKELEFLPYSQKAIAKQVNFYKPSSIAYLELDPRDFKVTEEWQKENLKIRSKAQAKMLEMRDLKPDPQAHLPTSQSLLFVQKIFADVNKEIEAVANTEKKAEKAGYGYSKRM, METAICGRLALAPSSLFNSKSGDKHLVSKGPCVNRSILMTLSTSAALGKGGGVLDKPIIEKTTPGRESEFDLRKSKKIAPPYRVILHNDNFNKREYVVQVLMKVIPGMTVDNAVNIMQEAHINGLAVVIVCAQADAEQHCMQLRGNGLLSSVEPDGGGC, METNFSIPLNETEEVLPEPAGHTVLWIFSLLVHGVTFVFGVLGNGLVIWVAGFRMTRTVNTICYLNLALADFSFSAILPFRMVSVAMREKWPFGSFLCKLVHVMIDINLFVSVYLITIIALDRCICVLHPAWAQNHRTMSLAKRVMTGLWIFTIVLTLPNFIFWTTISTTNGDTYCIFNFAFWGDTAVERLNVFITMAKVFLILHFIIGFSVPMSIITVCYGIIAAKIHRNHMIKSSRPLRVFAAVVASFFICWFPYELIGILMAVWLKEMLLNGKYKIILVLINPTSSLAFFNSCLNPILYVFMGRNFQERLIRSLPTSLERALTEVPDSAQTSNTDTTSASPPEETELQAM, METNKYLELIKQELANMPDFVKEYNLGTSHSLTTTYQYLTEIRRFFDWLRQNNIASVSSNKEIEVTTLENLQRNDVMLYIHHLKHTKNQQGRLNSPTTINRSINALRSLYKFLTITSDNNHGEPYFDRNVMLKINSLNDTKTLNYRAHVLESHMYMGDLKYQFLDFIENEYIHKCNKQSLPAFKKNHERDMAIIALILGTGIRVSECVGVNMRNINLKDAMLDVTRKGGQKDSVPIAEWTIPYLKKYREIRADHYHAEKEDIAFFLTRWHGKTKRITTNAVEKMVNKYSAAFGKPLTPHKLRHTLASELYEVTKDQVLVAQQLGQKGTTATDLYTHVDQKKQKAALNKINRYKSSD, METPAVSLLVAVYNTETYIRTCLESLRNQTMDNIEIIIVNDGSADASPDIAEEYAKMDNRFKVIHQENQGLGAVRNKGIEAARGEFIAFIDSDDWIEPDYCEQMLRTAGDETDLVICNYAAEFEDTGKTMDSDIAQTYQDQPKEHYIKALFEGKVRGFSWNKLYRRSMIEAHRLSFPLRGELEHVEDQFFSFRAHFFARSVSYVKTPLYHYRIHLSSIVQRYQKKLFESGLALYETNAAFLQENNKLEEYRKELDTFIVLHSSICMLNEWKTSGSRRLFEKLRNVGVICADPVFQESLSKTGTAPFDAKRSCLLLMAKYRMIPFVAMASAVYQRVIEYKMRNRG, METPYTDHLSPEDFEHVYEPAEDSFLLLDALEKDLEYLDRLQPSLCVELGSGSGVIITALAKKLAGFSLCLATDINPKACNATRRTATRNGARLDSIRCSLADALRPRSVDVLLFNPPYVVTSDEELQTQQFDSHSESSTDRNLVFSWAGGQDGRRVTDILLKQLDDILSPRGVLYLLLLRENKPEEIIKYLEGLQFRAVKFMERRIPGEHLCILKVTRYLASS, METRFVTPFHHLLVNNLVANITNFTIWFALTFYVYLETKSVFATGMIAGVYLVLTAACGIWFGSLVDHHRKKLAMAGSSLASLLLYALALAVLLLAPKGAIADVGRPWLWALIGLSMLGVIAGNIRTIALPTLVTLLIPEDRRDKANGLVGMVSGVGFLTTSVISGFLVAWGGMLAALTFALGFTVAALVHLLTVPVDEPRVEAEHGAPVAPRRIDLAGTIKVVAAVPGLFALILFATFNNFLGGIFMALLDAYGLSMVSVQAWGLLFGFLSVAFIISGLAISKTGLGKNPLRTLLLVNLISWAVCCVFPLKSSIVMLAMGCFVWMLLGPYAEAAEQTTLQKVVPFERQGRVFGFAQSVEQAASPLTAFLIGPLTQFIVIPFMTHGAGAAAIGDWFGRGPDRGMALVFTLAGVVGLIVTLLAFGSKAYRQLSAAYAQGEPAPAA, METTDHSTPQCGSASAGGQKTVGKDDYLLIEAVNKGDADRVQQLLEQGADANVCEESGGWTPLHNAVQSGRVDIVNLLLRYGADPHRRKKNGATPFIVAGICGDVSLLQIFLSRGANINERDMYGFTAFMEAAEYGNVEALKFLFAEGADVNLRRETTEDRRRLKQGGATALMSAAENGHPEVVRILLDEMKAEADARDNMGRNALIRSLLNRDCENVEIHVEEITSVLIQYGADINVRGEGEKTPLISAVKRKHTGLVQMLLSQEGIKVNDRDSEGKTALQIAVELKLKEIVRLLLEKGADTKCGDLVWIAKRNYDHGLVKLLLSYEANHDTNPPAKDWLPHSARWGEALERLHSVSRPMTGKLKIFMNDDYKIASTSEGGIYLGIYDNREVAVKVFCENSSRGRKEVSCLRDCGDHSNLLTFYGSEEHKGSLYVCVSLCESTLEKFLNVPREEPMEKGEDKFALSVLLSIFKGVQKLHMHGYSHQNLQPPNILIDSEKAVRLADFDESIQWMRESQTVQRDLEDLGRLVLYVVNKGEIPFETLKGQNDEELLTIAPNEETKDLVHCLFSPGENVKNCLMDLLGHPFFWTWENRYRTLRDVGNESDIKVRNNKSKLLKLLQPQTHAPSRSFDRWTSKIDKRVMSDMNGFYKSRKGYRDTVGDLLKFIRNIGEHINEEKNRQMKEILGDPSRYFQETFPDLVIYIYKKLKETEFRKHFPQPPPSLSVPEAAGPGGVQS, METVFALCAIMLLAFNLLGIVLAGWRLTRRDAENDLVRQKPPVSLVVPLRGVENFTPLTLSRAFGLDWPDYELLFCVADEFDPVIAEVRKAAAAFPSVSMQLLIGDDRVSANPKLNNCVKGWRAAKYEWVILADSNVLMPKSYIATMMSAWRPDSGLVCSPPLGSRPVGFWANVECAFLNGSQGRWQYAAEAIGIGFAQGKSMLWNKPFLEDRGGIRALAAEIAEDAASTKLVRSAGRKVHLVSAPFEQPLGQRHAGEIWSRQTRWARLRRVTFPQYFAPEILTGALPPLLFALAATAMMDVNLAATASVVLALMFGPELALAALNGWPVSLYTLPAMIARDLIMPVVWARSWIGSAVAWRGNVMTIGTAESTLAGPPAE, MEVCSTVTTKKLSSLAKLILFTIQKVSDASRHKLLTTLDPHLLAKRGKILRKSLNEAVSTSHSRITCRPSDHQDVRSSFISPVPLQLEYEFSCSSTPPRRSYATTVSKGRRSNGSHNRPLINKRQRQAYIRYNTLPKVRDSIWDRHVAAAVFPDVASSTGTMESCHVDRAAEEFIQSFYRQLRLQKWMMAQEV, MEVISSFYLFLEILGTVAFAISGTVVGINHKLDIFGILVMSVITAVGGGIFRDLLLGATPPTALKSPFFIVISIIASIVAMLVALIIKSRREALSIFKAARFYNNLLLVSDAIGLGIFTVLGIDAGIAHGYSQNIFFIVFLGVLTGVGGGMIRDVIANQVPMIFRENIYALPCIIGGILYVYLQSVISHNLALFISVIFIVLIRIISEQRKLNLPRIEY, MEVKMNEIMEALEQSELIIIHRHLRPDPDAYGSQLGLKYYLQKKFPNKQIYAVGANEDSLKFIGLMDEIDDDMYKKATVVVCDTANAPRIDDQRYDTGTKLLKIDHHPATDQYGDINYVNTKASSTSEIIYEFILHFNDEHIIDEQVARVLYLGIVGDTGRFLFNNTTPRTMQIAGKLLTYPFDHNQELNKMSEKDPKLLPFQGYILQNFDLNDKGFCKVKITKDILEKFQIQPNEASLFVNTIADIRGLKIWMFGVDEGDQIRCRLRSKGHIIINDVANTFGGGGHPNASGVSVNSWEQFEQLAEALNDKL, MEVSEGIEIIRGDPRRALIKLSGPLIVAMLLTSIYNLVDAVWVAGLGGEALAAIGFVTPIYMILVGLSNGLGAGAASSVSRCLGAGDEEGMNNSASHTIIITLAVSIILTVIIEILLRDILLSLGAAGALKPAMEYGSVVFAGTLFTLFPGAAYGILRSEGDARRPMYAMGLSAVLNMVLDPILIYTAGWGIAGAAWATVISQLLVSLLIIYWFLAGRTFTSIGWSHFRADRGVVWSILSVTIPASAEFLVMSMVTALLNWILTSVAGTSAVAVYSAGWRIVMLAIVPVISVATALVSVSGVAYGSRNFENLEVAHGYSIRLGLLIAGATAALTFVLAPWIAWIFSYSQASSHLAPRITGFLRVICLFYIFLPPGIMSGSIFQGAGRGMTSLMLSVIRQVLLVAVFAYLLAVTLGLGEVGVWWGVVAGDIGGSLVAYLWARLFIGRLRRYAA, MEVYSMNFALGVILAFSAAFTWALTSVLSKVSMRRVSPLTLNFLRLVIASGFYLPLIIYLNLIPSKGIMWWVIVVFSGIIGFMIGDWLFLEGMKLLGVSRANMLTTLHPIITMVLAHYLLGRPLNAYLFLGAGLIILAVLLLLSEKSESGGINARGVLLVVVAELLWTIAILITDWLVSNEPPVLIAALRISSGILGGLPFLPKMWREIRKLRLGDMGLVFVISLLGTIVGQYLFIKSISLVSSTVATPVTESTPIMASLLAVVFLREKITSKLVASMMLSFIGILIIGVLG
